According to the nanobody polyreactivity screen of Harvey et al. (2022):

Assay: yeast display, Sf9 membrane polyspecificity reagent, FACS + sequencing; frameworks hold sequencing errors
Outline: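 In a synthetic yeast display library (Saccharomyces cerevisiae BJ5465), nanobody expression was induced with galactose for 36–48 hours. FACS gates were set low and high (top ~1%) using anti-HA fluorescence for expression and streptavidin fluorescence for binding of the Sf9 membrane reagent. Each polyreactivity label is drawn from the gate of origin.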

Sequence	polyreactivity (PSR sort gate)
QVQLVESGGALVQAGGSLRLSCAASGSTFPYYAMGWYRQAPGKERELVAAISRGGGITYYADSVKGRLTISRDNAKNTVYLQMISLKPEDTAVYYCAARGFWWPYTYYYWGQGTQVTVSS	high polyreactivity
QVQLVESGGALVQAGGSLRLSCAASGSTFRYDMGWYRQAPGKERELVAAITWGGVSTYYADSVKGRFTISRDNAKNTVYLQMNSLKPEDTAVYYCNVVISLQQGDYWGQGTQVTVSS	low polyreactivity
QVQLVESGGALVQAGGSLRLSCAASGSTFYGYAMGWYRQATGKERELVASITTRGGRTNYADSVKVRFTISRDNAKNTVYLEMNSLKPEDNSVYYCATYSYVTRYARWGEFDYWGQGTQVTVSS	high polyreactivity
QVQLVESGGALVQAGGSLRLSCAASGSTFYRNAMGWYRPAPGKERELVATISSSDGSTYYADSVKGRFTISRDNAKNTVYVQMNSLKPEDTAVYYCNADPISSGSVANFQYDYCGQGTQVTVSS	low polyreactivity
QVQLVESGGALVQAGGSLRLSCAASGSTMGWYRQAPGKVREFVAAIRWIGGGTYYADSVKGRFTISRDNAKNTVYLQMNSLKPEDTGVYYCAARLSVAWVGYDYWGQGTQVTVSS	low polyreactivity
QVQLVESGGALVQAGGSLRLSCAASGSTSYTNAMGLYRHAPGKEREFVASISLSAGSTYYADSVKGRFKISRDNAKNTVYLQMNSLKPEDTAVYYCASESVAILGLVYPKGYGYWGQGTQVTVSS	low polyreactivity
QVQLVESGGALVQAGGSLRLSCAASGYTFCYNAMGWYRQAPGKEREFVAAISWSGGSTYYADSVKGRFTISRDNAKNTVYLQMYSLKPEDTAVYYCAVEGVYWYVSMYYWGQGTQVTVSS	low polyreactivity
QVQLVESGGALVQAGGSLRLSCAASGYTFSKYAMGWYRQAPGKERELVAAISKRGGSTSYADSVKGRFTISRDNAKNTVYLQMNILKPEDTAVYYCNAREWSRTFDYWGQGSQVTVSS	high polyreactivity
QVQLVESGGALVQAGGTLRLSGAASGIIFDGYAMGWYRQAPGKEREFVAVISSSGGTTYYADSVKGRFTISRDNAKNTVYLQMNRLKPEDSAVYYCACVYVSLWPSATYWSGFGYWGQGTKVTVSS	low polyreactivity
QVQLVESGGALVQARGSLRLSSAASGSIFPFYAMPSYRQAPGKERELVAAISDRGGSTYYADSVKGRFTISRDNAKNTVYLQMNSLKPEDTAVYYCAVDGYGWGSSSSWFRSLYDYWGQGTQVTVSS	low polyreactivity
QVQLVESGGALVQEGGSLRLSCAASGITFAGNAMGWYRQAPGKERELVATITSDGNTNYAVSVKGRFTISRDNAKNTVYLQMNSLKPEDTAVYYCNAEGENRRDRYDYWGQGTQVTVSS	low polyreactivity
QVQLVESGGCLDQAGGSLRLSCAASGRIFDHYAMGWYRQAPGKEMELVAAITRSGGITYYADSVKGRFTISRDNAKNTVYLQMNSLKPEDTAVYYCAALSYRYTDKFDYWGQGTQVTVSS	low polyreactivity
QVQLVESGGCLDQAGGSLRLSCAASGSIFYYYTMGWSRQAPGKEREFVATITYSGGSTYYADSVKGRITISRDNAKYTVYLQMNSLKPEDTAVYYCNARPRYYDWVDYWGQGTQVTVSS	low polyreactivity
QVQLVESGGCLFQAGGSLRLICAASGSISGLYAIGWYRQAPGKERELVARIRWRGDSTYYADSVKGRFTISRDNAKNTVYLQMNSLKPEDTAVYYCAASAYSGKVNKYNYWGQGTQVTVSS	high polyreactivity
QVQLVESGGCLIKEVGSLRLSCAASGNIFVFYGKGWYRQAPGKERELVAAIDSGGSSTYYADSVKGRFTISRDNAKNTVYLKMKSLKPEDTAFDYCSARPYYSWNYDYWGQGTQVTVSS	low polyreactivity
QVQLVESGGCLLQAGATLRLSCASSGSIFNGKAMGWYRQAPGKERELVAANTWSGGSTYYADSVKGRFTISRDNAKNSVYLQMNSLKPEDTAVYYCNTYTYRGYDYWGQGTQVTVSS	high polyreactivity
QVQLVESGGCLVQAGCSLRLSCAASGSTFYSYAMGWYRQAPGKERELVAAINWDGVSTYYADSVKGRFTISRDNAKNTVYLQMNSMKPEDTAVYFCAAELFYGYRISGTYYYWGQGTQVTVSS	low polyreactivity
QVQLVESGGCLVQAGGSIRLSFAASGSISIRNAMGWYRQAPGTERELVAAISRGGSTYYADSVKGRFTISRDNAKNTVYLQMNSLNPEDTAVYYFATDGGLYYRGREYAFKYFYWGQGTQLTVSS	high polyreactivity
QVQLVESGGCLVQAGGSLRLCCAASGSTFDSNAMGSYRQAPGIERELVAAISSDGSTTYADSVKGRFTISRDNAMNTVYLQMNSLKPEDTAVYYCEYYYWGQGTQVSVSS	low polyreactivity
QVQLVESGGCLVQAGGSLRLICAASGRIIDRNAMGWYRHAPGKERELVAAISSSGSTYYADSVKGRFTISRDNAKITVYLQMNSLKPEDTAVYYCNKRARHSGDFVWGHGYWGQGTQVNVSS	low polyreactivity
QVQLVESGGCLVQAGGSLRLICAASGRIVKYAMGWYRQAPGKERELVAAISGSGGTTYYADSVKGRFTISRDNAKNTVYLQMNSLKPEDTAVYYCAASRPRPPSSRRMDYWGQGTQVTVSS	high polyreactivity
QVQLVESGGCLVQAGGSLRLSCAASGFIFAYNAMGWYRQAPGKERELDAAISWSGGSTYYADSVKGRFTISRDNAKNTVYLQMNSLKPEDTAVYYCNKYIRYPFKRYGYWGQGTQVTVSS	high polyreactivity

Sequence	polyreactivity (PSR sort gate)
QVQLVESGGCLVQAGGSLRLSCAASGFIFNKYAMGWSRQATGKERELVAAISFRGGRTYYADSVKGRFTISRDNAKNTVYFQMNSLKPEDTAVYYCAAETRDYSEGYYWGQGTQVTVSS	high polyreactivity
QVQLVESGGCLVQAGGSLRLSCAASGFIFSTNAMAWYRQARGTERELVAAITGRGTNTYYADSVKGRFTISRDNAKNTVYLQMNSLKPEDTAVYYCAADGGSYSDYDYWGLGTQVTVSS	high polyreactivity
QVQLVESGGCLVQAGGSLRLSCAASGFTFRRYTMGWSRQAPGKDRELVAAISGRGGRTYYADSVKGRFTISRDNAKNTVYLQMNSLQPQDTAVYYSAADTPYWQSSKYDYWGQGTQVTVSS	high polyreactivity
QVQLVESGGCLVQAGGSLRLSCAASGFTFSNYAMGWYRQPPGKESEFVAAISGTGGSTYYADSVKGRFTISRVNAKNTVYLQMNSLKPEDTAVYYCARRRTYPPGRYYYWGQGTQVTVSS	high polyreactivity
QVQLVESGGCLVQAGGSLRLSCAASGFTFVGYAMGWYRQAPGKERELVAAITSSGGSTYYADSVKGRFTISRDNAKNTVYLQMNSLKPEDTAVYYCAAPAPVLSTQKRFDSWGQGTQVTVSS	low polyreactivity
QVQLVESGGCLVQAGGSLRLSCAASGFTFYGYAMAWYRQAPGKERELVAYISWSGGTTYYADSVKGRFTISRDNAKNTVYLQMNSLKPEDTAVYYCNAVRYRYGVFPYYYWGQGTQVTVSS	high polyreactivity
QVQLVESGGCLVQAGGSLRLSCAASGGTFGPNAKGSYRQAPGKERELVAAISWTTGRTYADSVKGRFTISRDNAKNTVYLQMNSLKPEDTAVYYCATRAYRLDPLQHDYWGQGTQVTVSS	low polyreactivity
QVQLVESGGCLVQAGGSLRLSCAASGIIFSGYAMGWYRQAPGKERELVAAISSRGGGPYYADSVKGRFTISRDNAKKTVYLQMNSLKPEDTAVYYCNRVAFTYNYWGQGTQVTVTS	high polyreactivity
QVQLVESGGCLVQAGGSLRLSCAASGIIFTYYAMGWYRQAPGKERELVARISSSGGRTYYADSVKGRFTISRDNAKNTVYLQMNSLKPEDTAVYYCAARVFSRPPQPGSPRGYRGFDYWGQGTQVTVSS	high polyreactivity
QVQLVESGGCLVQAGGSLRLSCAASGITFESNAMGWYRQAPGIEREFVAAISYDGGDTYYADSVKGRFTISRDNAKNTVYLEMTSLKTEDTAVFYCAAEPGWTMDYWGQGTQVTVSS	low polyreactivity
QVQLVESGGCLVQAGGSLRLSCAASGITFYVYAMGWYRQAPGKESELVASITSGGGSTDYADSVKGRVTISRDNAKNTVYLQMNSLKPEDTAVYYCAARYPLLNQLYDFDYWGQGTQVTVSS	low polyreactivity
QVQLVESGGCLVQAGGSLRLSCAASGITITANAMGWYRQAPRKERELVAAITWSGGSTYYADSVKGRFTISRDNAKNTVYLQMNSLKPEETAVYYCNAEGIGDREYDYWGQGTQVTVSS	low polyreactivity
QVQLVESGGCLVQAGGSLRLSCAASGLIFGDYAMGWYRPAPGKESELVAAITGSFTRTYYADSVKGSFTISRDNAKNTVYLQMNSLKPEDTAVYYCAADWYKRPPYVYWGQGTQVTLSS	low polyreactivity
QVQLVESGGCLVQAGGSLRLSCAASGLIFGRNVMGWYRQAPGKERELVAAISWSGGRTYYADSVKGRFSISRDNAKNTVYLQMNSLKPEDTAVYYCNARYSRVWYGCDYWGQGTQVTVSS	high polyreactivity
QVQLVESGGCLVQAGGSLRLSCAASGLTFIVYAMGWYRQAPGKERELVADITWSGGSTYYADSVKGRYTISRDNAKITVYLQMNSLKPVDTAVYYCNRQSAKIMDYWGQGTQVNVSS	low polyreactivity
QVQLVESGGCLVQAGGSLRLSCAASGNTFPYYDMGWYRQAPGKERELVAVIRTGDDTNYADSVKGRFTISRDNAKNTVYLQMNSLKPEDTAVYYCAVVGPKGADGLPPYNRMDYWGHGTQVTVSS	low polyreactivity
QVQLVESGGCLVQAGGSLRLSCAASGNTFVDYAMGWYRQAPGKERELGAAIDQTGGSTYYADSVKGRFTISRDNAKNTVYLQMNSLKPVDTAVYYCASDLSDRKDLYPRWYDYWGQGSQVTVSS	low polyreactivity
QVQLVESGGCLVQAGGSLRLSCAASGNTLRTYGMGWYRQAPGKESEFVAAITYSGGSTYYADSVKGRFTISRDNAKNTVYLQMNSLKPEDTAVYYCAARYRSHYRRITPYDSWGQGTQVTVSS	high polyreactivity
QVQLVESGGCLVQAGGSLRLSCAASGRIFHQNTMGWYRQAPGKERELVAAISATGGGTNYADSVKGRFTISRDNAKNTVYLQMNSLKPEDTAVYYCAVRPKTSWYSWYYWGQGTQVTVSS	low polyreactivity
QVQLVESGGCLVQAGGSLRLSCAASGRIFQYYTMGWYRQAPAKERELVAAITYSGGDTRYADSVKGRFTISRDNAKNTVYLQMNSLKPEDTAVYYCAADYFDQYQYGVWTYGYWGQGTQVTVSS	low polyreactivity
QVQLVESGGCLVQAGGSLRLSCAASGRIFYGNTMGCYRQAPGKESELVATITRSGGSTYYADSVKGRFTISRDNAKNTVYLQMNNLKPEDTAVYYCAVGYWRLFPYGYWGQGTQVTVSS	high polyreactivity
